Read-outs that look alike come from different tables or passages of the source.
Tests used:
[1] = target: human N-terminal acetyltransferase D (hNatD) (human) (UniProt Q86UY6)
[2] = target: human N-terminal acetyltransferase D (hNatD) (human) (UniProt Q86UY6); remark: listed apart in the source
[3] = target: human N-terminal acetyltransferase D (hNatD) (human) (UniProt Q86UY6); remark: listed apart in the source

| Substance | kcat/Km of Nα-acetylation by hNatD (continuous fluorescence assay) [1] [M⁻¹ s⁻¹] | kcat/Km of Nα-acetylation by hNatD (continuous fluorescence assay) [3] [M⁻¹ s⁻¹] | further results |
| --- | --- | --- | --- |
| oncohistone H4/H2A pentapeptide R3Q (from UniProt P62805 2-6) | 157 |  |  |
| oncohistone H4/H2A pentapeptide S1L (from UniProt P62805 2-6) |  |  | kcat/Km of Nα-acetylation by hNatD (continuous fluorescence assay) [2]: 4.17 M⁻¹ s⁻¹ |
| oncohistone H4/H2A pentapeptide R3C (SGCGK) |  |  | kcat/Km of Nα-acetylation by hNatD (MALDI-MS assay) [1]: 1830 M⁻¹ s⁻¹ |
| oncohistone H4/H2A pentapeptide G4D (from UniProt P62805 2-6) |  | 483 |  |
| oncohistone H4/H2A pentapeptide R3H (from UniProt P62805 2-6) | 4830 |  |  |
| oncohistone H4/H2A pentapeptide G4V (from UniProt P62805 2-6) |  | 3500 |  |

Reference: paper PMC9294072
